Laboratory results published in patent US20150086555A1.
Like-named read-outs stand apart in the source and are kept apart here.

Columns and labels:
Conditions in all cases: remark: other sources report otherwise
[1] = biological target: T1, recombinant soluble homotrimeric HA of A/California/4/09 (H1N1) (Influenza A virus A/California/04/2009(H1N1)); experiment: trimeric HA microarray, transfection supernatant set 1
[2] = biological target: T2, recombinant soluble homotrimeric HA of A/Netherlands/219/03 (H7N7) (Influenza A virus A/Netherlands/219/03(H7N7)); experiment: as above
[3] = biological target: T3, recombinant soluble homotrimeric HA of A/Japan/305/57 (H2N2) (Influenza A virus A/Japan/305/1957(H2N2)); experiment: as above
[4] = biological target: T4, recombinant soluble homotrimeric HA of A/chicken/Vietnam/NCVD-016/08 (H5N1) (Influenza A virus A/chicken/Vietnam/NCVD-016/2008(H5N1)); experiment: as above
[5] = biological target: T5, recombinant soluble homotrimeric HA of A/South Carolina/1/18 (H1N1) (Influenza A virus A/South Carolina/1/18 (H1N1)); experiment: as above
[6] = biological target: T6, recombinant soluble homotrimeric HA of A/Indonesia/5/05 (H5N1) (Influenza A virus A/Indonesia/5/2005(H5N1)); experiment: as above
[7] = biological target: T7, recombinant soluble homotrimeric HA of A/Vietnam/1203/04 (H5N1) (Influenza A virus A/VietNam/1203/2004(H5N1)); experiment: as above
[8] = biological target: T8, recombinant soluble homotrimeric HA of A/Anhui/1/05 (H5N1) (Influenza A virus A/Anhui/1/2005(H5N1)); experiment: as above
[9] = biological target: T9, recombinant soluble homotrimeric HA of A/Egypt/3300-NAMRU3/08 (H5N1) (Influenza A virus A/Egypt/3300-NAMRU3/2008(H5N1)); experiment: as above
[10] = biological target: T10, recombinant soluble homotrimeric HA of A/Solomon Islands/3/06 (H1N1) (Influenza A virus A/Solomon Islands/3/2006(H1N1)); experiment: as above
[11] = biological target: recombinant soluble homotrimeric HA of A/Hong Kong/2108/03 (H9N2) (Influenza A virus A/HK/2108/2003(H9N2)); experiment: trimeric HA microarray, transfection supernatant set 3
[12] = biological target: recombinant soluble homotrimeric HA of A/northern shoveler/California/HKWF115/07 (H6) (Influenza A virus A/northern shoveler/California/HKWF115/2007(H6N1))
[13] = biological target: T1, recombinant soluble homotrimeric HA of …
[14] = biological target: T2, recombinant soluble homotrimeric HA of …
[15] = biological target: recombinant soluble homotrimeric HA of A/Hong Kong/156/97 (H5N1) (Influenza A virus A/Hong Kong/156/97 (H5N1))
[16] = biological target: recombinant soluble homotrimeric HA of A/Hong Kong/1073/99 (H9N2) (Influenza A virus A/Hong Kong/1073/99 (H9N2))
[17] = biological target: T3, recombinant soluble homotrimeric HA of …
[18] = biological target: T4, recombinant soluble homotrimeric HA of …
[19] = biological target: T5, recombinant soluble homotrimeric HA of …
[20] = biological target: T6, recombinant soluble homotrimeric HA of …
[21] = biological target: T7, recombinant soluble homotrimeric HA of …
[22] = biological target: T11, recombinant soluble homotrimeric HA of A/swine/Ontario/01911-2/99 (H4N6) (Influenza A virus A/Swine/Ontario/01911-2/99 (H4N6))
[23] = biological target: recombinant soluble homotrimeric HA of A/Wisconsin/67/05 (H3N2) (Influenza A virus A/Wisconsin/67/2005(H3N2))
[24] = biological target: T8, recombinant soluble homotrimeric HA of …
[25] = biological target: T12, recombinant soluble homotrimeric HA of A/duck/Yangzhou/02/05 (H8N4) (Influenza A virus A/duck/Yangzhou/02/2005(H8N4))
[26] = biological target: T9, recombinant soluble homotrimeric HA of …
[27] = biological target: T10, recombinant soluble homotrimeric HA of …
[28] = biological target: T11, recombinant soluble homotrimeric HA of …; experiment: trimeric HA microarray, transfection supernatant set 1
[29] = biological target: T12, recombinant soluble homotrimeric HA of …; experiment: as above

Binder	Trimeric HA Binding: RLU [1]	Trimeric HA Binding: RLU [2]	Trimeric HA Binding: RLU [3]	Trimeric HA Binding: RLU [4]	Trimeric HA Binding: RLU [5]	Trimeric HA Binding: RLU [6]	Trimeric HA Binding: RLU [7]	Trimeric HA Binding: RLU [8]	Trimeric HA Binding: RLU [9]	Trimeric HA Binding: RLU [10]	also measured
TCN-523 (5248_A17) (antibody, V domains shown) VH: QVQLVQSGAEVKKPGSSVKVSCKASGGSFSNYAFSWVRQAPGQGLEWMGGTIPLLGTTNYAQKFQGRVTISADQFTSTAYMELGSLRSEDTAVYYCTRRKMTTAFDSWGQGTLVTVSS VL: QPVLTQPPSASASLGASVTLTCTLSSAYSNYKVDWYQQRPGKGPRFVMRVGTGGIVGSKGDGIPDRFSVLGSGLNRYLTIKNIQEEDESDYHCGADHGSGSNFVSPYVFGGGTKLTVL	17700 RLU	28 RLU	191 RLU	10800 RLU	26400 RLU	18500 RLU	80 RLU	60 RLU	25500 RLU	6780 RLU	Trimeric HA Binding: RLU [11]: 51 RLU
TCN-563 (5237_B21) (antibody, V domains shown) VH: QVQLAQSGAEVKRPGSSVKVSCTASGGIFRKNAISWVRQAPGQGLEWMGGIIAVFNTANYAQKFQGRVKITADESGNTAYMELSSLRSDDTAVYYCASHPKYFYGSGSYPDFWGQGTLVTVSS VL: QSALTQPRSVSGSPGQSVTISCTGSSSDVGASNSVSWYQQHPGKAPKLVIYDVTERPSGVPHRFSGSKSGNTASLTVSGLQPEDEADYFCCAYGGKYLVVFGGGTKVTVL	–	–	–	–	–	–	–	–	–	–	Trimeric HA Binding: RLU [12]: 21400 RLU; Trimeric HA Binding: RLU [13]: 25900 RLU; Trimeric HA Binding: RLU [14]: 1690 RLU; Trimeric HA Binding: RLU [15]: 17700 RLU; Trimeric HA Binding: RLU [16]: 4600 RLU; Trimeric HA Binding: RLU [17]: 12400 RLU; Trimeric HA Binding: RLU [18]: 8580 RLU; Trimeric HA Binding: RLU [19]: 16300 RLU; Trimeric HA Binding: RLU [20]: 23200 RLU; Trimeric HA Binding: RLU [21]: 27700 RLU; Trimeric HA Binding: RLU [22]: 376 RLU; Trimeric HA Binding: RLU [23]: 314 RLU; Trimeric HA Binding: RLU [24]: 7520 RLU; Trimeric HA Binding: RLU [25]: 327 RLU; Trimeric HA Binding: RLU [26]: 21600 RLU; Trimeric HA Binding: RLU [27]: 21000 RLU
TCN-504 (3251_K17) (antibody, V domains shown) VH: QVQLQESGPGLVKPSETLSLTCAVSGVSISNIDFYWGWIRQPPGKGLEWIGNIYYTGITFYNPSLSSRVAISIDTSKNQFSLTLTSVTAADTAMYYCARHYGDSEAINDAFDIWGQGTMLTVSS VL: EIVMTQSPATLSVSPGERATLSCRASQSVGNSLAWYQQRPGQAPRLLIYGASTRATGIPPRFSGSGSGTEFTLTISSLQTEDFAVYYCQQYINWRPLSFGGGTKVEIK	18300 RLU	23800 RLU	15100 RLU	27800 RLU	21500 RLU	16600 RLU	1300 RLU	29000 RLU	16100 RLU	29800 RLU	Trimeric HA Binding: RLU [28]: 26500 RLU; Trimeric HA Binding: RLU [29]: 28900 RLU
